Measurements reported in the PETadex activity labels (doi:10.3390/microorganisms12010138).

How the values were obtained:
PET [1] = experiment: Proxy for plastic degradation [Released monomer concentration (HPLC/LC-MS) (TPA)]; details: pH 7
PET [2] = experiment: Proxy for plastic degradation [Released monomer concentration (HPLC/LC-MS) (MHET)]; details: pH 7

Protein	Proxy for plastic degradation (PET [1])	Proxy for plastic degradation (PET [2]; 37 °C)	further results
unnamed (protein) MKKLLKVLLIIFLVIVVLVIGLVIFLTIASGKQNAPKEYWNAIASEGTIEKEYNKLGSYEFESKVYDAPKVDSHDNNFVVYMPKEEGTYPLVVMVNGSGTPWDKYKAVFEHFASWGYVVVGCNYEISWDGKHASETLDFALNTKEIADKVDTSKVAVCGHSQGGEGAFNAALEYDNSDMYKAIISLSPTNQELALGLKWGFNLDTDDMYAYRLENVTIPTMIIAGTGKFDSETVTPLYKMEDMFEQLNTDVVMARLSNNVDHGAVLYEANGYVIAWLDYYLKGIETNGTAFFGNEAEIKNNTRYQDFTSQKV			Proxy for plastic degradation (PET [1]; 37 °C, part of the chain shown): 0 µM; Proxy for plastic degradation (PET [2]; 37 °C, part of the chain shown): 0 µM
unnamed (protein) MKKLLKVLLIIFLVIVVLVIGLVIFLTIASGKQNAPKEYWNAIASEGTIEKEYNKLGSYEFESKVYDAPKVDSHDNNFVVYMPKEEGTYPLVVMVNGSGTPWDKYKAVFEHFASWGYVVVGCNYEISWDGKHASETLDFALNTKEIADKVDTSKVAVCGHSQGGEGAFNAALEYDNSDMYKAIISLSPTNQELALGLKWGFNLDTDDMYAYRLENVTIPTMIIAGTGKFDSETVTPLYKMEDMFEQLNTDVVMARLSNNVDHGAVLYEANGYVIAWLDYYLKGIETNGTAFFGNEAEIKNNTRYQDFTSQKVK	6 µM		
unnamed (protein) MNFPRASRLMQAAVLGGLMAVSAAATAQTNPYARGPNPTAASLEASAGPFTVRSFTVSRPSGYGAGTVYYPTNAGGTVGAIAIVPGYTARQSSIKWWGPRLASHGFVVITIDTNSTLDQPSSRSSQQMAALRQVASLNGTSSSPIYGKVDTARMGVMGWSMGGGGSLISAANNPSLKAAAPQAPWDSSTNFSSVTVPTLIFACENDSIAPVNSSALPIYDSMSRNAKQFLEINGGSHSCANSGNSNQALIGKKGVAWMKRFMDNDTRYSTFACENPNSTRVSDFRTANCS			Proxy for plastic degradation (PET [2]; part of the chain shown): 370 µM
unnamed (protein) MEKSVLIKGDNYDISGILSYKETVDKMPAVILCHGTGAQKNEVGDLFVILAEKLLQRGIASIRIDYAGCGDSKADQRELTFLGEVEDTKKAYQYICDLGCVDQKNIGILGFSQGARVVAELLKEMQEFTCVASWSGACQNGRGVFEGWFQEYYQEAEEHGYARIPMGWRDDLLLSKQWFDEIENTTPMDGLKKYTGPVLAVAGAADEIVPCSHTKEIMAEGTNEQSKMLILPGADHIFNVLSGDKTMSEHVLDVTADWFAEVMGGAKISK	4 µM	0 µM	
unnamed (protein) MQNPSAPVVETRQGALTGLTDENVHRWCGIPYAAPPVGDWRWRSPRPPERWDGVRDATAFSASSWQSSEYCQELGGGDPGQFSEDCLYLNVWSPVDRPGSLPVMVWLHGGGFTIGAGGLPPYHGKSLAARGVVVVTINYRLGHLGFFAHPALEGEEERVVHNFALLDQIAALEWVRENITAFGGDPHNVTLFGESAGARSVLSLLASPLAEGLFHKAIVQSGYTLPDTPRQQALQKGEALAAHFGLENATAEQLRAIPPESFWPLTAPLNIAPAPIVGDCVLPEAMLDVFFAARQHPVPVMIGSNSDEASVMAVFGIDLAGQIQKLRRERRFGLGLIKLLYPGVKGDEELGRQVCRDMAFTTMGYVVMQAQQRVGGLCWRYWFDYVAEAEHATYINGAWHGNEVPYVFDTLGQVEPSRQYVNERDLQFAARVADYWVSFARDAGTHDSLSGPTHWPACRKGRDVLLRIGVNKHAGFRLENRFMRARMSLFKRVMKHHVSLD	2 µM	0 µM	Proxy for plastic degradation (PET [1]; 37 °C): 0 µM; Proxy for plastic degradation (PET [2]): 0 µM
